From publication PMC3876041, “Screening of Peptide Ligands for Pyrroloquinoline Quinone Glucose Dehydrogenase Using Antagonistic Template-Based Biopanning” (International Journal of Molecular Sciences, 2013)
No end group written: not given here.

What was measured:
HI (Y367H-N452I GDH-B) = molecular target: T1, HI (Y367H-N452I GDH-B) (Acinetobacter calcoaceticus, UniProt P13650, N452I/Y367H); assay: SPR (BIAcore X) binding of immobilized synthesized peptides, HI as analyte; conditions: peptide on CM5 chip (amine coupling), analyte 5 nM to 90 μM in 10 mM MOPS–NaOH pH 7.0, less than 20 RU at any analyte concentration = not binding, read-out: Kd against HI
T1 construct: made in house; host or cells: Escherichia coli PP2418 / pTrc99A
T1 sequence (P13650 25-478 Y367H/N452I): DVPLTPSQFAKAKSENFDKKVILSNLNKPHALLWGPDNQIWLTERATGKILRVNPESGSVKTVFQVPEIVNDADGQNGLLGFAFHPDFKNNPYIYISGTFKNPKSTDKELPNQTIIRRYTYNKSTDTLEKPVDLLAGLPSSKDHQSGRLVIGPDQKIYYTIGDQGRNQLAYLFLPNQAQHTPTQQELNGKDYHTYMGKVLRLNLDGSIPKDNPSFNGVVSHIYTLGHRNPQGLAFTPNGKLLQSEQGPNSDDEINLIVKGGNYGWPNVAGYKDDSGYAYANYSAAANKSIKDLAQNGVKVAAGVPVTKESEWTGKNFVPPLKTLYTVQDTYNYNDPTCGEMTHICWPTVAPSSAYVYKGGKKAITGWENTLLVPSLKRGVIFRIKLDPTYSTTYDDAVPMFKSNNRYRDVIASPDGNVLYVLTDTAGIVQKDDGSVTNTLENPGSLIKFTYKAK
Source text: (§1) The purity was greater than 95%.

[1] = molecular target: T2, DEE-His (His-tagged V453D-Q454E-K455E GDH-B) (Acinetobacter calcoaceticus, UniProt P13650, K455E/Q454E/V453D); assay: SPR (BIAcore X) binding of immobilized synthesized peptides, DEE-His as analyte; conditions: peptide on CM5 chip (amine coupling), analyte 5 nM to 90 μM in 10 mM MOPS–NaOH pH 7.0, less than 20 RU at any analyte concentration = not binding, read-out: Kd against DEE-His
T2 construct: 6-His (C); made in house
T2 sequence (P13650 25-478 V453D/Q454E/K455E): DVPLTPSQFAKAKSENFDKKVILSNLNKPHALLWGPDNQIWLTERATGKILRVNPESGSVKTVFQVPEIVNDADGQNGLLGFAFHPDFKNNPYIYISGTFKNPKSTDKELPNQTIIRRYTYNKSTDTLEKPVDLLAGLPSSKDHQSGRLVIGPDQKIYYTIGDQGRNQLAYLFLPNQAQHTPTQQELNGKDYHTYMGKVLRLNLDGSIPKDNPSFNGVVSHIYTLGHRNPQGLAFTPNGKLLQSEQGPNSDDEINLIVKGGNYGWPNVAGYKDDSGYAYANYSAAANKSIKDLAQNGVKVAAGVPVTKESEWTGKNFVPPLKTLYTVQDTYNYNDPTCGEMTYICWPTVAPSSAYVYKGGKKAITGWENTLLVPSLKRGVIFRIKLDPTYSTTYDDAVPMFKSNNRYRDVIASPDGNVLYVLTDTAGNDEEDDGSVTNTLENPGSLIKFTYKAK
Source text: as §1

[2] = molecular target: T3, wild-type water-soluble pyrroloquinoline quinone (PQQ) glucose dehydrogenase (GDH-B) (UniProt P13650 25-478); assay: SPR; BIAcore X; peptide immobilised on CM5 chip by amine coupling (320-2130 RU); analytes GDH-B, DEE-His or HI, five concentrations (5 nM to 90 uM) in 10 mM MOPS-NaOH pH 7.0, 10 uL/min to plateau; Kd from plateau RU against concentration (Scatchard); less than 20 RU at any concentration judged as not binding; conditions: both partners purified
T3 construct: water-soluble PQQ-dependent glucose dehydrogenase (GDH-B); structural gene in pTrc99A; Produced as apo-form in E. coli; PQQ and Ca2+ are added for activity assays; also called wild-type GDH-B; W.T; source: E. coli PP2418 (pTrc99A), purified as previously described (cation exchange chromatography)
T3 sequence (looked up): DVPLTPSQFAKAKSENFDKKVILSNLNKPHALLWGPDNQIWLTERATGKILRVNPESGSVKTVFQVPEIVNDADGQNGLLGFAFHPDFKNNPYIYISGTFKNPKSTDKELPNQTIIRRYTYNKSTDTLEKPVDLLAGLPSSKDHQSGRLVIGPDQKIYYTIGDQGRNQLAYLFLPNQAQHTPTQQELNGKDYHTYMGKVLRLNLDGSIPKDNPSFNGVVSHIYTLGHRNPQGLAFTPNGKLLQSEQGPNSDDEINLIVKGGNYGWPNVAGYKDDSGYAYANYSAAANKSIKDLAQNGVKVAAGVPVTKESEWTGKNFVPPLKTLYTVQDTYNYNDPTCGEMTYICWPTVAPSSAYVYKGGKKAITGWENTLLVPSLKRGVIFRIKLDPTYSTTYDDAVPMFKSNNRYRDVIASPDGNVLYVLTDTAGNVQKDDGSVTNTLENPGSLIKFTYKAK

Y367H-N452I GDH-B (HI) = molecular target: T4, Y367H-N452I GDH-B (HI) (UniProt P13650 25-478, Y367H | N452I); assay: SPR; conditions: both partners purified
T4 construct: also called antagonistic template; source: E. coli PP2418 (pTrc99A), soluble, purified (Resource S cation exchange, Superdex 200 size exclusion chromatography)
T4 sequence: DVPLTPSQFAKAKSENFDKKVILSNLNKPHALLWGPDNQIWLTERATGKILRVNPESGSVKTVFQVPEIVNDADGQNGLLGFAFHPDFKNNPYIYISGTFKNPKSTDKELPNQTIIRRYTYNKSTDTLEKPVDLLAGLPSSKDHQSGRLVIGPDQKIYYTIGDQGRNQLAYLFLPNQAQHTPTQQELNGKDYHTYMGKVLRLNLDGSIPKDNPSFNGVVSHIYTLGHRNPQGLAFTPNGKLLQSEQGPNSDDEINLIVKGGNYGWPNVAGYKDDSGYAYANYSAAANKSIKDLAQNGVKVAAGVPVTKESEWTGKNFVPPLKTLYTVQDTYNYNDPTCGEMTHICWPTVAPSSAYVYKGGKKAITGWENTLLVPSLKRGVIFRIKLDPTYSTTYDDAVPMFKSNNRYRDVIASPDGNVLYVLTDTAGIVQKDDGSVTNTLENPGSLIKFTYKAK

[3] = molecular target: T3, wild-type water-soluble …; assay: enzyme inhibition assay; residual activity of 0.7 nM GDH-B for 50 mM D-glucose after 1 h incubation with various concentrations of peptide; DCIP/PMS, 10 mM MOPS-NaOH pH 7.0, PQQ, CaCl2; non-competitive dominant mixed inhibition; conditions: both partners purified
[4] = decrease vs wild-type GDH-B, ref [36]; cited from earlier work
Source text: We, and other research groups, have been engaged in constructing of variety of mutant GDH-Bs in order to develop an ideal enzyme for glucose monitoring. For example, we have reported the Asn452Thr GDH-B mutant, showing approximately 50% lower activity for lactose and maltose than the wild-type GDH-B [36].

[5] = Kinetic parameters of GDH-B and mutant enzymes; type: biochemical
Method: GDH-B activity was measured using 0.06 mM 2,6-dichlorophenolindophenol (DCIP) and 0.6 mM phenazine methosulfate (PMS) following 30 min pre-incubation in 10 mM MOPS–NaOH buffer (pH 7.0) containing 1 μM PQQ and 1 mM CaCl2 at room temperature (25 °C). The enzyme activity was determined by measuring the decrease in absorbance of DCIP at 600 nm. For the inhibition assay, the residual activity of 0.7 nM GDH-B for 50 mM D-glucose was measured following 1 h incubation with various concentrations of each peptide. GDH-B activity in the absence of peptide was defined as 100%.

[6] = DCIP/PMS assay, 10 mM MOPS–NaOH pH 7.0, 1 μM PQQ, 1 mM CaCl2, 25 °C

Q: Which results are given for NSTHHHHFATIW [DEE4–10]?
A: Kd (HI (Y367H-N452I GDH-B)): > 90 µM; Kd [1]: > 90 µM

Q: With SDLSPIQSLSAI [DEE4–6] as the molecule, how does the Kd [1] read?
A: The Kd was > 90 µM.

Q: Which Kd (HI (Y367H-N452I GDH-B)) does the source give for LGDSSNSQVSLN [DEE4–5] here?
A: The Kd was > 90 µM.

Q: What about the Kd [1] of the same molecule?
A: Its Kd is > 90 µM.

Q: Which Kd [1] does the source give for ELITNSETTQWF [HI3-2] here?
A: The Kd was > 90 µM.

B1: DEE4–5 synthesized 12-mer peptide (peptide)
peptide: LGDSSNSQVSLN
notes: 12-mer selected from the Ph.D.-12 phage display peptide library; Immobilised on a CM5 chip by amine coupling in the SPR; also called DEE3-4; source: synthetic peptide, bought: Sigma Aldrich Japan
Q: Which Kd [2] does the source give for B1 here?
A: Its Kd is 13 µM.

B2: HI3-2 synthesized 12-mer peptide (peptide)
peptide: ELITNSETTQWF
notes: 12-mer selected from the Ph.D.-12 phage display peptide library; Immobilised on a CM5 chip by amine coupling in the SPR; source: synthetic peptide, bought: Sigma Aldrich Japan
Q: With B2 as the molecule, how does the Kd [2] read?
A: The Kd was 2.5 µM.

Q: What about the Kd (Y367H-N452I GDH-B (HI)) of the same molecule?
A: Its Kd is 88 µM.

B3: DEE4–6 synthesized 12-mer peptide (peptide)
peptide: SDLSPIQSLSAI
notes: 12-mer selected from the Ph.D.-12 phage display peptide library; Immobilised on a CM5 chip by amine coupling in the SPR; also called DEE4–9; source: synthetic peptide, bought: Sigma Aldrich Japan
Q: For B3, which Kd [2] is on record?
A: Its Kd is 2.5 µM.

Q: What about the Kd (Y367H-N452I GDH-B (HI)) of the same molecule?
A: The Kd was 230 µM.

B4: DEE4–10 synthesized 12-mer peptide (peptide)
peptide: NSTHHHHFATIW
notes: 12-mer selected from the Ph.D.-12 phage display peptide library; Immobilised on a CM5 chip by amine coupling in the SPR; also called HI4–6; source: synthetic peptide, bought: Sigma Aldrich Japan
Q: What does the source list for B4?
A: Ki [3]: 7.4 µM; Kd [2]: 0.7 µM

B5: Asn452Thr GDH-B mutant: previously reported Asn452Thr GDH-B mutant, ref [36] (protein, UniProt P13650 25-478, looked up, variant N452T)
Quinoprotein glucose …: DVPLTPSQFAKAKSENFDKKVILSNLNKPHALLWGPDNQIWLTERATGKILRVNPESGSVKTVFQVPEIVNDADGQNGLLGFAFHPDFKNNPYIYISGTFKNPKSTDKELPNQTIIRRYTYNKSTDTLEKPVDLLAGLPSSKDHQSGRLVIGPDQKIYYTIGDQGRNQLAYLFLPNQAQHTPTQQELNGKDYHTYMGKVLRLNLDGSIPKDNPSFNGVVSHIYTLGHRNPQGLAFTPNGKLLQSEQGPNSDDEINLIVKGGNYGWPNVAGYKDDSGYAYANYSAAANKSIKDLAQNGVKVAAGVPVTKESEWTGKNFVPPLKTLYTVQDTYNYNDPTCGEMTYICWPTVAPSSAYVYKGGKKAITGWENTLLVPSLKRGVIFRIKLDPTYSTTYDDAVPMFKSNNRYRDVIASPDGNVLYVLTDTAGTVQKDDGSVTNTLENPGSLIKFTYKAK
Q: For B5, which “lower activity for lactose than the wild-type” value [4] is on record?
A: The value was “approximately 50%”.

Q: What about the “lower activity for maltose than the wild-type” value [4] of the same molecule?
A: The value was “approximately 50%”.

B6: GB-His: GDH-B fused with 6-His tag to the C-terminal (protein)
chain: DVPLTPSQFAKAKSENFDKKVILSNLNKPHALLWGPDNQIWLTERATGKILRVNPESGSVKTVFQVPEIVNDADGQNGLLGFAFHPDFKNNPYIYISGTFKNPKSTDKELPNQTIIRRYTYNKSTDTLEKPVDLLAGLPSSKDHQSGRLVIGPDQKIYYTIGDQGRNQLAYLFLPNQAQHTPTQQELNGKDYHTYMGKVLRLNLDGSIPKDNPSFNGVVSHIYTLGHRNPQGLAFTPNGKLLQSEQGPNSDDEINLIVKGGNYGWPNVAGYKDDSGYAYANYSAAANKSIKDLAQNGVKVAAGVPVTKESEWTGKNFVPPLKTLYTVQDTYNYNDPTCGEMTYICWPTVAPSSAYVYKGGKKAITGWENTLLVPSLKRGVIFRIKLDPTYSTTYDDAVPMFKSNNRYRDVIASPDGNVLYVLTDTAGNVQKDDGSVTNTLENPGSLIKFTYKAK
modifications: left off: His6, C-terminal, kept
notes: GDH-B fused with 6-His tag to the C-terminal
Q: With B6 as the molecule, how does the Km ([5]; pH 7) read?
A: Its Km is 24 mM.

Q: And the Vmax ([5]; pH 7)?
A: The Vmax was 3950 U/mg protein.

B7: HI: GDH-B mutant Y367H-N452I, antagonistic template (protein)
chain: DVPLTPSQFAKAKSENFDKKVILSNLNKPHALLWGPDNQIWLTERATGKILRVNPESGSVKTVFQVPEIVNDADGQNGLLGFAFHPDFKNNPYIYISGTFKNPKSTDKELPNQTIIRRYTYNKSTDTLEKPVDLLAGLPSSKDHQSGRLVIGPDQKIYYTIGDQGRNQLAYLFLPNQAQHTPTQQELNGKDYHTYMGKVLRLNLDGSIPKDNPSFNGVVSHIYTLGHRNPQGLAFTPNGKLLQSEQGPNSDDEINLIVKGGNYGWPNVAGYKDDSGYAYANYSAAANKSIKDLAQNGVKVAAGVPVTKESEWTGKNFVPPLKTLYTVQDTYNYNDPTCGEMTHICWPTVAPSSAYVYKGGKKAITGWENTLLVPSLKRGVIFRIKLDPTYSTTYDDAVPMFKSNNRYRDVIASPDGNVLYVLTDTAGIVQKDDGSVTNTLENPGSLIKFTYKAK
Q: For B7, which Km [5, 6] is on record?
A: The Km was 18 mM.

Q: And the Vmax [5, 6]?
A: Its Vmax is 170 U/mg protein.

B8: GDH-B: water-soluble pyrroloquinoline quinone (PQQ) dependent glucose dehydrogenase, wild type (protein)
chain: DVPLTPSQFAKAKSENFDKKVILSNLNKPHALLWGPDNQIWLTERATGKILRVNPESGSVKTVFQVPEIVNDADGQNGLLGFAFHPDFKNNPYIYISGTFKNPKSTDKELPNQTIIRRYTYNKSTDTLEKPVDLLAGLPSSKDHQSGRLVIGPDQKIYYTIGDQGRNQLAYLFLPNQAQHTPTQQELNGKDYHTYMGKVLRLNLDGSIPKDNPSFNGVVSHIYTLGHRNPQGLAFTPNGKLLQSEQGPNSDDEINLIVKGGNYGWPNVAGYKDDSGYAYANYSAAANKSIKDLAQNGVKVAAGVPVTKESEWTGKNFVPPLKTLYTVQDTYNYNDPTCGEMTYICWPTVAPSSAYVYKGGKKAITGWENTLLVPSLKRGVIFRIKLDPTYSTTYDDAVPMFKSNNRYRDVIASPDGNVLYVLTDTAGNVQKDDGSVTNTLENPGSLIKFTYKAK
Q: What does the source list for B8?
A: Km [5, 6]: 25 mM; Vmax [5, 6]: 5200 U/mg protein
